Data taken from paper PMC2936520.

Target: OsAP2-39 (OsNUE39) (Oryza sativa) (UniProt Q7XPL6)
Assay: EMSA
Conditions: Invitrogen EMSA kit E33075 per manufacturer; 30 ng protein with 0-400 ng DNA; 4-20% TBE native gel, 200 V, 45 min; buffer, salt, pH and temperature not stated

Chain of OsAP2-39 (OsNUE39) (Oryza sativa) (Q7XPL6 entry or part of it): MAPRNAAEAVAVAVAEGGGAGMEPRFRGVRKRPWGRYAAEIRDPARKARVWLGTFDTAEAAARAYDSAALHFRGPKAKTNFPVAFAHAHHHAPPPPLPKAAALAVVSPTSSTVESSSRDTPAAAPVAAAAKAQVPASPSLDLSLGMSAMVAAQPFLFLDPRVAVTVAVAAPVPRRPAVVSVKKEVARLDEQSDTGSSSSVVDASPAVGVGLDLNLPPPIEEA

“AGTGTTCTGTTCCCCCGGGGAGATAAACCCCCCCTCCTTGGCAACGATACTACCAAGGTTTCTCATCACCAAGATTGTTTGCATGGGACACAGTAACAAACACCGCAGCCGCCGGCGCCGCAGACATT (double strand) [OsNCED-1 promoter GCC-box fragment]” was tested. Which binding did it give?
The binding was “binds”.
